Measured values taken from patent publication US20240132578A1.

Assays:
Assay in all cases: cell-based or functional assay
[1] = target: HIV-1 Env of isolate 92RW020 (Clade A) (HIV-1)
[2] = target: HIV-1 Env of isolate 93RW029 (clade A pseudovirus) (HIV-1)
[3] = target: HIV-1 Env of isolate MGRM-A-011 (clade A pseudovirus) (HIV-1)
[4] = target: HIV-1 Env of isolate MGRM-D-001 (clade D pseudovirus) (HIV-1)
[5] = target: HIV-1 Env of isolate MGRM-D-004 (clade D pseudovirus) (HIV-1)
[6] = target: HIV-1 Env of isolate MGRM-D-005 (clade D pseudovirus) (HIV-1)
[7] = target: HIV-1 Env of pseudovirus MGRM-F1-018 (clade F) (HIV-1)
[8] = target: HIV-1 Env of pseudovirus MGRM-G-017 (HIV-1)
[9] = target: HIV-1 MGRM-AE-007 Env (pseudovirus) (HIV-1)
[10] = target: HIV-1 envelope glycoprotein (Env) of isolate MGRM-C-023 (HIV-1)
[11] = target: aMLV envelope on pseudovirus (negative control)
[12] = target: HIV-1 Env of isolate MGRM-AE-002 (pseudovirus) (HIV-1)
[13] = target: HIV-1 Env of isolate MGRM-G-001 (subtype G) (HIV-1)
[14] = target: HIV-1 Env of isolate MGRM-G-028 (subtype G) (HIV-1)
[15] = target: HIV-1 MGRM-C-026 Env (HIV-1)
[16] = target: HIV-1 92UG005 envelope protein (Env) on pseudovirus (HIV-1)
[17] = target: HIV-1 Env of isolate 92UG024 (pseudovirus) (HIV-1)
[18] = target: HIV-1 Env of isolate 92UG114 (pseudovirus) (HIV-1)
[19] = target: HIV-1 Env of isolate 98CN009 (pseudovirus) (HIV-1)
[20] = target: HIV-1 Env of isolate CAAN.A2 (HIV-1)
[21] = target: HIV-1 Env of isolate MGRM-A-008 (subtype A) (HIV-1)
[22] = target: HIV-1 Env of isolate MGRM-A-011 (subtype A) (HIV-1)
[23] = target: HIV-1 Env of isolate MGRM-AG-001 (subtype AG) (HIV-1)
[24] = target: HIV-1 Env of isolate MGRM-Chronic-B-003 (HIV-1)
[25] = target: HIV-1 Env of isolate MGRM-D-018 (pseudovirus) (HIV-1)
[26] = target: HIV-1 Env of isolate MGRM-F1-017 (HIV-1)
[27] = target: HIV-1 Env of pseudovirus isolate MGRM-C-006 (clade C) (HIV-1)
[28] = target: HIV-1 Env of isolate MGRM-F1-018 (pseudovirus) (HIV-1)
[29] = target: HIV-1 Env of isolate MGRM-F1-021 (pseudovirus) (HIV-1)
[30] = target: HIV-1 envelope glycoprotein (Env) of isolate MGRM-AE-003, subtype AE (HIV-1)
[31] = target: HIV-1 envelope glycoprotein (Env) of isolate MGRM-Chronic-B-012, on pseudovirus (HIV-1)
[32] = target: HIV-1 envelope glycoprotein (Env) of isolate MGRM-Chronic-B-018, on pseudovirus (HIV-1)
[33] = target: HIV-1 envelope glycoprotein (Env) of isolate THRO.18, on pseudovirus (HIV-1)
[34] = target: HIV-1 envelope glycoprotein (Env) of isolate TRO.11, on pseudovirus (HIV-1)
[35] = target: HIV-1 envelope glycoprotein (Env) of isolate VLGCA1, subtype A (HIV-1)
[36] = target: HIV-1 Env of isolate MG RM-A-012 (pseudovirus) (HIV-1)
[37] = target: HIV-1 Env of isolate MGRM-G-004 (subtype G) (HIV-1)
[38] = target: HIV-1 Env of pseudovirus isolate 6535.3 (clade B) (HIV-1)
[39] = target: HIV-1 Env of pseudovirus isolate CAAN.A2 (clade B) (HIV-1)

4993_K13 (PGT-141) (antibody), sequence (VH): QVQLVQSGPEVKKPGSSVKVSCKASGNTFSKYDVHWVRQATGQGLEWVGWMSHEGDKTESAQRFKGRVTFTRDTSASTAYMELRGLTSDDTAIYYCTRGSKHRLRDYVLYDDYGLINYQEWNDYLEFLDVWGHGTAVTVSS
4993_K13 (PGT-141) (antibody), sequence (VL): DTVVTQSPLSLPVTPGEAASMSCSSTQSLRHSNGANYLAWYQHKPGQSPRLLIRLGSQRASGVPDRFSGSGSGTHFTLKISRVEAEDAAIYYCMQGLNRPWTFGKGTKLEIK
1443_C16 (PG16) (TCN-116) (antibody), sequence (VH): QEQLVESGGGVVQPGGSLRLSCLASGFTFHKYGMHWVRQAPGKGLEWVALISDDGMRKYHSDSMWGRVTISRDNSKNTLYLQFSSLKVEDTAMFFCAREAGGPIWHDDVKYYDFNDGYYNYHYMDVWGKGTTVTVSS
1443_C16 (PG16) (TCN-116) (antibody), sequence (VL): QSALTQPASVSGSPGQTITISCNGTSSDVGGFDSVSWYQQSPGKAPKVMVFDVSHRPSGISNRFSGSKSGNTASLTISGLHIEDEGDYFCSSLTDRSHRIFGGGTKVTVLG
4995_E20 (PGT-142) (antibody), sequence (VH): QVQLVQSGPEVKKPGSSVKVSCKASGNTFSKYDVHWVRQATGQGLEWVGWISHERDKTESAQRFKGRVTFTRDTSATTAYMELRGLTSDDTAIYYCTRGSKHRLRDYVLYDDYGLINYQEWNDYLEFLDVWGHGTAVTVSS
4995_P16 (PGT-145) (antibody), sequence (VH): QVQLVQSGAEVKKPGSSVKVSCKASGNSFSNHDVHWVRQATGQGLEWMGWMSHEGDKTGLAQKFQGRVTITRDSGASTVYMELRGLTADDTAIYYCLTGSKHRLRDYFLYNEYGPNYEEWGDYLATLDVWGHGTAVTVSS
4995_P16 (PGT-145) (antibody), sequence (VL): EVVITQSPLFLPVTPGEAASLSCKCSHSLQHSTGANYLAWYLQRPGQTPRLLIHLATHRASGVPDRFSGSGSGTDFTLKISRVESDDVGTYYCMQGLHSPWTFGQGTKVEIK
5329_C19 (PGT-136) (antibody), sequence (VH): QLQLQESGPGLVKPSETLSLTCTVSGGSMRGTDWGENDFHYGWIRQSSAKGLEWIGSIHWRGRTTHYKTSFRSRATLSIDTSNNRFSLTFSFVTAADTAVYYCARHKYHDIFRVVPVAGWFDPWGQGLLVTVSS
5329_C19 (PGT-136) (antibody), sequence (VL): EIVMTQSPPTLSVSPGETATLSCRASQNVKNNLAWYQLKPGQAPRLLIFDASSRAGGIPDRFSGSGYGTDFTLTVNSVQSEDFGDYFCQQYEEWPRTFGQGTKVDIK
5345_I01 (PGT-137) (antibody), sequence (VH): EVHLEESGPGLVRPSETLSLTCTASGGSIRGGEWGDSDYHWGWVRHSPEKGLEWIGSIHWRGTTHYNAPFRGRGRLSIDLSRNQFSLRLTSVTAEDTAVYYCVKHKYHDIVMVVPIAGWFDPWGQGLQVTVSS
5345_I01 (PGT-137) (antibody), sequence (VL): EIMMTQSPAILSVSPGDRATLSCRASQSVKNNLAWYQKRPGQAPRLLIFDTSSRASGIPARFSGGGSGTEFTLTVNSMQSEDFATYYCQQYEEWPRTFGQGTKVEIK
4980_N08 (PGT-143) (antibody), sequence (VH): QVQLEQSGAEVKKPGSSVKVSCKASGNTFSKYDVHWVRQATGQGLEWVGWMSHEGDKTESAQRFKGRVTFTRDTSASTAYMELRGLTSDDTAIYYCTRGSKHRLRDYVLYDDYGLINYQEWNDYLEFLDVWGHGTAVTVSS
4980_N08 (PGT-143) (antibody), sequence (VL): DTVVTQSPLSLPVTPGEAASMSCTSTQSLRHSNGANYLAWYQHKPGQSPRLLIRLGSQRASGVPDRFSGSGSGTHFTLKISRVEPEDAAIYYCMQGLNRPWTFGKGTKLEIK
4970_K22 (PGT-144) (antibody), sequence (VH): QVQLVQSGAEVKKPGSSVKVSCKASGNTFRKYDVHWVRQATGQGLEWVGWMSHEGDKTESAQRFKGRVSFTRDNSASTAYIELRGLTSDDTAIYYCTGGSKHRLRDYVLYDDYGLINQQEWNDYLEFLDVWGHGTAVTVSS
4970_K22 (PGT-144) (antibody), sequence (VL): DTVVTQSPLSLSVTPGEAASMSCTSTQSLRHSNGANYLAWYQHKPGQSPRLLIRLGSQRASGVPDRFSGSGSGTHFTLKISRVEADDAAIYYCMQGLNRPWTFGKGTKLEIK

Substance | IC90 (neutralization of pseudovirus) [1] | IC50 (µg/ml), pseudovirus neutralization [2] | IC50 (µg/ml), pseudovirus neutralization [3] | IC50, pseudovirus neutralization [4] | IC50, pseudovirus neutralization [5] | IC50, pseudovirus neutralization [6] | IC50 [7] | IC50 (µg/ml), pseudovirus neutralization [8] | IC50 (µg/ml), pseudovirus neutralization [9] | IC50 (µg/ml), pseudovirus neutralization [10] | neutralization IC50 [11] | IC50 (µg/mL), pseudovirus neutralization [13] | IC50 (µg/mL), pseudovirus neutralization [14] | IC50 (µg/mL), pseudovirus neutralization [37] | further results
4E10 (antibody) | 36.1 µg/mL | 15.5 µg/mL | 2.88 µg/mL | 1.84 µg/mL | 1.58 µg/mL | 35.2 µg/mL | 3.6 µg/mL | 1.14 µg/mL | 0.45 µg/mL | 1.95 µg/mL | > 50 µg/mL | – | – | – | –
1496_C09 (PG9) (TCN-109) (antibody) | 6.55 µg/mL | 1.19 µg/mL | – | – | 0.03 µg/mL | 0.59 µg/mL | 0.03 µg/mL | 0.03 µg/mL | – | 0.51 µg/mL | – | 0.166 µg/mL | 0.891 µg/mL | – | IC50 (µg/mL), pseudovirus neutralization [12]: 0.04 µg/mL; IC50, pseudovirus neutralization [15]: 0.113 µg/mL
b12 (antibody) | > 50 µg/mL | > 50 µg/mL | 4.01 µg/mL | > 50 µg/mL | > 50 µg/mL | > 50 µg/mL | > 50 µg/mL | > 50 µg/mL | > 50 µg/mL | 13.9 µg/mL | > 50 µg/mL | – | – | – | –
1495_C14 (PGC14) (antibody) | – | 42 µg/mL | > 50 µg/mL | > 50 µg/mL | > 50 µg/mL | > 50 µg/mL | > 50 µg/mL | > 50 µg/mL | > 50 µg/mL | > 50 µg/mL | > 50 µg/mL | – | – | – | –
2G12 (antibody) | 6.23 µg/mL | > 50 µg/mL | > 50 µg/mL | > 50 µg/mL | > 50 µg/mL | 25.7 µg/mL | > 50 µg/mL | > 50 µg/mL | > 50 µg/mL | > 50 µg/mL | > 50 µg/mL | – | – | – | –
5329_C19 (PGT-136) (antibody) | – | – | – | – | – | – | – | – | – | – | – | – | – | – | IC50 (ug/mL), pseudovirus neutralization [16]: > 10 µg/mL; IC50 (µg/mL), pseudovirus neutralization [17]: 0.052 µg/mL; IC50 (µg/mL), pseudovirus neutralization [18]: > 50 µg/mL; IC50 (µg/mL), pseudovirus neutralization [19]: 0.428 µg/mL; IC50 (µg/mL), pseudovirus neutralization [20]: > 50 µg/mL; IC50, pseudovirus neutralization [21]: > 50 µg/mL; IC50, pseudovirus neutralization [22]: > 50 µg/mL; IC50, pseudovirus neutralization [23]: > 50 µg/mL; IC50 (µg/mL), pseudovirus neutralization [24]: > 50 µg/mL; IC50 (µg/mL), pseudovirus neutralization [25]: > 50 µg/mL; IC50 (µg/mL), pseudovirus neutralization [26]: > 50 µg/mL; IC50, pseudovirus neutralization [27]: > 50 µg/mL
2F5 (antibody) | 27.7 µg/mL | > 50 µg/mL | > 50 µg/mL | 0.63 µg/mL | 2.3 µg/mL | > 50 µg/mL | 3.91 µg/mL | 0.6 µg/mL | 0.07 µg/mL | > 50 µg/mL | > 50 µg/mL | – | – | – | –
4838_L06 (PGT-121) (antibody) | – | – | – | – | – | – | – | – | – | – | – | – | – | – | IC50 (ug/mL), pseudovirus neutralization [16]: > 10 µg/mL; IC50 (µg/mL), pseudovirus neutralization [28]: 0.04 µg/mL; IC50 (µg/mL), pseudovirus neutralization [29]: 0.099 µg/mL; IC50, pseudovirus neutralization [30]: > 50 µg/mL; IC50, pseudovirus neutralization [31]: 0.036 µg/mL; IC50, pseudovirus neutralization [32]: > 50 µg/mL; IC50, pseudovirus neutralization [33]: > 50 µg/mL; IC50, pseudovirus neutralization [34]: 0.008 µg/mL; IC50, pseudovirus neutralization [35]: > 50 µg/mL
4970_K22 (PGT-144) (antibody) | – | – | – | – | – | – | – | – | – | – | – | > 50 µg/mL | > 50 µg/mL | > 50 µg/mL | IC50 (µg/mL), single-round pseudovirus neutralization [36]: > 50 µg/mL; IC50 (µg/mL), single-round pseudovirus neutralization [12]: > 50 µg/mL; IC50, pseudovirus neutralization [38]: > 50 µg/mL; IC50, pseudovirus neutralization [39]: > 50 µg/mL
4995_E20 (PGT-142) (antibody) | – | – | – | – | – | – | – | – | – | – | – | 0.362 µg/mL | 30.3 µg/mL | > 50 µg/mL | IC50 (µg/mL), single-round pseudovirus neutralization [36]: > 50 µg/mL; IC50 (µg/mL), single-round pseudovirus neutralization [12]: > 50 µg/mL; IC50, pseudovirus neutralization [38]: > 50 µg/mL; IC50, pseudovirus neutralization [39]: > 50 µg/mL
4995_P16 (PGT-145) (antibody) | – | – | – | – | – | – | – | – | – | – | – | 0.028 µg/mL | 0.046 µg/mL | > 50 µg/mL | IC50 (µg/mL), single-round pseudovirus neutralization [36]: 0.23 µg/mL; IC50 (µg/mL), single-round pseudovirus neutralization [12]: 1.87 µg/mL; IC50, pseudovirus neutralization [38]: > 50 µg/mL; IC50, pseudovirus neutralization [39]: 7.08 µg/mL
4877_D15 (PGT-122) (antibody) | – | – | – | – | – | – | – | – | – | – | – | – | – | – | IC50 (ug/mL), pseudovirus neutralization [16]: > 10 µg/mL; IC50 (µg/mL), pseudovirus neutralization [28]: 0.563 µg/mL; IC50 (µg/mL), pseudovirus neutralization [29]: 2.3 µg/mL; IC50, pseudovirus neutralization [15]: 0.0089 µg/mL; IC50, pseudovirus neutralization [30]: > 50 µg/mL; IC50, pseudovirus neutralization [31]: 0.066 µg/mL; IC50, pseudovirus neutralization [32]: > 50 µg/mL; IC50, pseudovirus neutralization [33]: > 50 µg/mL; IC50, pseudovirus neutralization [34]: 0.011 µg/mL; IC50, pseudovirus neutralization [35]: > 50 µg/mL
4980_N08 (PGT-143) (antibody) | – | – | – | – | – | – | – | – | – | – | – | 0.423 µg/mL | 43 µg/mL | > 50 µg/mL | IC50 (µg/mL), single-round pseudovirus neutralization [36]: > 50 µg/mL; IC50 (µg/mL), single-round pseudovirus neutralization [12]: > 50 µg/mL; IC50, pseudovirus neutralization [38]: > 50 µg/mL; IC50, pseudovirus neutralization [39]: > 50 µg/mL
PGV04 (antibody) | – | – | – | – | – | – | – | – | – | – | – | > 50 µg/mL | 0.352 µg/mL | > 50 µg/mL | IC50 (µg/mL), pseudovirus neutralization [12]: 0.569 µg/mL; IC50 (µg/mL), pseudovirus neutralization [26]: 2.38 µg/mL
1443_C16 (PG16) (TCN-116) (antibody) | > 50 µg/mL | 3.83 µg/mL | 0.24 µg/mL | > 50 µg/mL | 0.01 µg/mL | 19.7 µg/mL | 0.01 µg/mL | 0.02 µg/mL | 0.04 µg/mL | 0.09 µg/mL | > 50 µg/mL | – | – | – | –
4993_K13 (PGT-141) (antibody) | – | – | – | – | – | – | – | – | – | – | – | 0.392 µg/mL | 24.9 µg/mL | > 50 µg/mL | IC50 (µg/mL), single-round pseudovirus neutralization [36]: > 50 µg/mL; IC50 (µg/mL), single-round pseudovirus neutralization [12]: > 50 µg/mL; IC50, pseudovirus neutralization [38]: > 50 µg/mL; IC50, pseudovirus neutralization [39]: > 50 µg/mL
5345_I01 (PGT-137) (antibody) | – | – | – | – | – | – | – | – | – | – | – | – | – | – | IC50 (µg/mL), pseudovirus neutralization [17]: 0.106 µg/mL; IC50 (µg/mL), pseudovirus neutralization [18]: > 50 µg/mL; IC50 (µg/mL), pseudovirus neutralization [19]: 5.06 µg/mL; IC50 (µg/mL), pseudovirus neutralization [20]: > 50 µg/mL; IC50, pseudovirus neutralization [21]: > 50 µg/mL; IC50, pseudovirus neutralization [22]: > 50 µg/mL; IC50, pseudovirus neutralization [23]: > 50 µg/mL; IC50 (µg/mL), pseudovirus neutralization [24]: > 50 µg/mL; IC50 (µg/mL), pseudovirus neutralization [25]: 15.1 µg/mL; IC50 (µg/mL), pseudovirus neutralization [26]: > 50 µg/mL; IC50, pseudovirus neutralization [27]: > 50 µg/mL
